Patent publication US20240376170A1 (BRIGHT PEAK THERAPEUTICS, published 2024)
Values belong to the binder of their own block, whether it stands above or below them. Bridges are numbered along the chain shown (N, C = ends). Primed or numbered codes have the meaning given here. Side-chain parts run from the residue outwards. [ ]: non-standard residue; d: D form. Ygp(4) = Tyr with amino-capped PEG8 (O-(8x polyethylene glycol-amino)-tyrosine); Yn3(4) = Tyr with azide-capped PEG9 (O-(9x polyethylene glycol-azido)-tyrosine); Ygp(8) = Tyr, amino-capped PEG8 (O-(8x polyethylene glycol-amino)-tyrosine); Yn3(8) = Tyr, azide-capped PEG9 (O-(9x polyethylene glycol-azido)-tyrosine); Ygp = O-(8x polyethylene glycol-amino)-tyrosine (Tyr, amino-capped PEG8); Yn3 = O-(9x polyethylene glycol-azido)-tyrosine (Tyr, azide-capped PEG9); Ygp″ = O-(8x polyethylene glycol-amino)-tyrosine; Yn3″ = O-(9x polyethylene glycol-azido)-tyrosine; PEG9′ = 9x polyethylene glycol; hSer = N[C@@H](CCO)C(=O)O; Nle = CCCC[C@H](N)C(=O)O

Tests used:
[1] = target: T1, IL-2Rβγ on HEK-Blue IL-2Rβγ reporter cells (InvivoGen) (UniProt P14784 27-551; P31785 23-369, limits assumed); test: cell-based or functional assay
T1 sequence (looked up) 1: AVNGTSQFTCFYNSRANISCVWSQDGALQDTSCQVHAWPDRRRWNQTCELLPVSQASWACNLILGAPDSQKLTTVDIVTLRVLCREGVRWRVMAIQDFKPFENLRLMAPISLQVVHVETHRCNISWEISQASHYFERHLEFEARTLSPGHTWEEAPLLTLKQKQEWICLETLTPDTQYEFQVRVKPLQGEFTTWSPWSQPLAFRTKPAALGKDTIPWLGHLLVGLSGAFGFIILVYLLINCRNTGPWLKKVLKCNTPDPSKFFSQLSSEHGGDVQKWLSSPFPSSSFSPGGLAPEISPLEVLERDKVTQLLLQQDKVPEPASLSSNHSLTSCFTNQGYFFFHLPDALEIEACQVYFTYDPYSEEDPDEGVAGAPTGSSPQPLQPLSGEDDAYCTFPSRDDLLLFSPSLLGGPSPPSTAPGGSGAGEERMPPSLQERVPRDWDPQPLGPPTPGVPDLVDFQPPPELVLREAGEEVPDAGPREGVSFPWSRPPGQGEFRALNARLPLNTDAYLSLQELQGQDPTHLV
T1 sequence (looked up) 2: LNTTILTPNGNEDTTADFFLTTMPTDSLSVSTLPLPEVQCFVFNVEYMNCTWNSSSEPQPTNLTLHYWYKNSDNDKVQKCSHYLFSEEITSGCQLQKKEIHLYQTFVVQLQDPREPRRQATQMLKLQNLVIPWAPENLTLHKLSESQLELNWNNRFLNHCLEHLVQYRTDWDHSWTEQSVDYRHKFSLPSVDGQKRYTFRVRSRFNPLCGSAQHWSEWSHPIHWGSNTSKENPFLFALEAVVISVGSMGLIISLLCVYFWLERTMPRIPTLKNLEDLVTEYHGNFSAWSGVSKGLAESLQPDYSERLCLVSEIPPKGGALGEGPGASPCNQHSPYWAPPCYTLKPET

IL-2 receptor βγ complex = target: T2, IL-2 receptor βγ complex (human, UniProt P14784 27-551; P31785 23-369); test: cell-based or functional assay
T2 sequence (looked up) 1: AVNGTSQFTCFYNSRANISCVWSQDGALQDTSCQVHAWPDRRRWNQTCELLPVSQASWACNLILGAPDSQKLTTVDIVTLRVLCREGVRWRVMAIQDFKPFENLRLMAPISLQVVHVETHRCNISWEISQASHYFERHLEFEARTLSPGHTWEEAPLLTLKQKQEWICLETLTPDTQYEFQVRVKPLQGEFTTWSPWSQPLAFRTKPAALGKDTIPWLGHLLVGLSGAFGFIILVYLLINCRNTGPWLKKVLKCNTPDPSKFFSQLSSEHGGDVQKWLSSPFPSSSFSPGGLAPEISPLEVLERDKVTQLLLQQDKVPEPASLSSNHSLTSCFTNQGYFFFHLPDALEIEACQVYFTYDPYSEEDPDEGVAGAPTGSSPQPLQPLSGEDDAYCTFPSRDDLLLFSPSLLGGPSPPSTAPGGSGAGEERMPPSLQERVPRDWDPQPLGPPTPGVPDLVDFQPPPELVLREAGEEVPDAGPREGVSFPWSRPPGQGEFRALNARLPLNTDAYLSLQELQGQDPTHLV
T2 sequence (looked up) 2: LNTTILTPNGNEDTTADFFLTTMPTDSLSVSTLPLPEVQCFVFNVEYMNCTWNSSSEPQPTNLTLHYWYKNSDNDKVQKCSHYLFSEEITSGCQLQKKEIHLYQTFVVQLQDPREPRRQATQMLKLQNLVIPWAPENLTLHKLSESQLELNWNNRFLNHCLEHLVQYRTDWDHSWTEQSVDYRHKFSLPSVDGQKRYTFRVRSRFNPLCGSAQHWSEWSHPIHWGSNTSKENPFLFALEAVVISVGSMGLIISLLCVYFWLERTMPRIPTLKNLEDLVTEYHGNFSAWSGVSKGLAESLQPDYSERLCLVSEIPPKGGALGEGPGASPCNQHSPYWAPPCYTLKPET

Average EC50, HEK-Blue IL-2R (CD122+, CD132+) Reporter Assay, intact molecule [1]: 0.34 nM
B1: CMP-304 (ligand)
chain: PLGLAGAPTSSSTKKTQLQLEHLLLDLQEILNGINNYKNPKLTR[Nle]L[hSer][Yn3(4)]KF[Ygp(4)][Nle]PKKATELKHLQCLEEELKPLEEVL[hSer]LAQSKNFHLRPRDLISNINVIVLELKGSETTF[hSer]CEYADETATIVEFLNRWITFSQSIISTLT
modifications: bridge N-29; not fully specified (N-terminus, bridges); ends not checked

Average EC50, HEK-Blue IL-2R (CD122+, CD132+) Reporter Assay, MMP2 cleaved molecule [1]: 0.00726 nM
B2: CMP-301, MMP2 cleaved (ligand)
chain: APTSSSTKKTQLQLEHLLLDLQEILNGINNYKNPKLTR[Nle]L[hSer][Yn3″]KF[Ygp″][Nle]PKKATELKHLQCLEEELKPLEEVL[hSer]LAQSKNFHLRPRDLISNINVIVLELKGSETTF[hSer]CEYADETATIVEFLNRWITFSQSIISTLT
modifications: ends and bridges not checked; also: MMP2 cleaved, ring opened, cut site and remnants not given here

Average EC50, HEK-Blue IL-2R (CD122+, CD132+) Reporter Assay, intact molecule [1]: 0.436 nM
B3: CMP-302 (ligand)
chain: GPLGLAGAPTSSSTKKTQLQLEHLLLDLQEILNGINNYKNPKLTR[Nle]L[hSer][Yn3″]KF[Ygp″][Nle]PKKATELKHLQCLEEELKPLEEVL[hSer]LAQSKNFHLRPRDLISNINVIVLELKGSETTF[hSer]CEYADETATIVEFLNRWITFSQSIISTLT
modifications: lactam N-30; ends not checked

Average EC50, HEK-Blue IL-2R (CD122+, CD132+) Reporter Assay, MMP2 cleaved molecule [1]: 0.0185 nM
B4: CMP-305, MMP2 cleaved (ligand)
chain: APTSSSTKKTQLQLEHLLLDLQKILNGINNYKNPKLTR[Nle]L[hSer][Yn3(4)]KF[Ygp(4)][Nle]PKKATELKHLQCLEEELKPLEEVL[hSer]LAQSKNFHLRPRDLISNINVIVLELKGSETTF[hSer]CEYADETATIVEFLNRWITFSQSIISTLT
modifications: ends and bridges not checked; also: Glu15 and Lys23 side chains carried cleaved peptide linker, remnants after MMP2 cut not given here

Average EC50, HEK-Blue IL-2R (CD122+, CD132+) Reporter Assay, MMP2 cleaved molecule [1]: 0.0218 nM
B5: CMP-303, MMP2 cleaved (ligand)
chain: PLGLAGAPTSSSTKKTQLQLEHLLLDLQEILNGINNYKNPKLTR[Nle]L[hSer][Yn3″]KF[Ygp″][Nle]PKKATELKHLQCLEEELKPLEEVL[hSer]LAQSKNFHLRPRDLISNINVIVLELKGSETTF[hSer]CEYADETATIVEFLNRWITFSQSIISTLT
modifications: ends and bridges not checked; also: MMP2 cleaved, ring opened, cut site and remnants not given here

Average EC50, pSTAT5 Assay in NK cells (IL-2 receptor βγ complex): 0.38 nM
B6: CMP-324 (ligand)
chain: LVGAPTSSSTKKTQLQLEHLLLDLQEILNGINNYKNPKLTR[Nle]L[hSer][Yn3″]KF[Ygp″][Nle]PKKATELKHLQCLEEELKPLEEVL[hSer]LAQSKNFHLRPRDLISNINVIVLELKGSETTF[hSer]CEYADETATIVEFLNRWITFSQSIISTLT
modifications: not fully specified (residue 26); ends and bridges not checked; also: Glu26 side chain attached to another sequence (short peptide)

Average EC50, pSTAT5 Assay in NK cells (IL-2 receptor βγ complex): 13.2 nM
B7: CMP-320 (ligand)
chain: SGRVAPQPLVDAPTSSSTKKTQLQLEHLLLDLQEILNGINNYKNPKLTR[Nle]L[hSer][Yn3(8)]KF[Ygp(8)][Nle]PKKATELKHLQCLEEELKPLEEVL[hSer]LAQSKNFHLRPRDLISNINVIVLELKGSETTF[hSer]CEYADETATIVEFLNRWITFSQSIISTLT
modifications: lactam N-34

Average EC50, pSTAT5 Assay in NK cells (IL-2 receptor βγ complex): 55.1 nM
B8: CMP-321 (ligand)
chain: SGRVQPLVDAPTSSSTKKTQLQLEHLLLDLQEILNGINNYKNPKLTR[Nle]L[hSer][Yn3(8)]KF[Ygp(8)][Nle]PKKATELKHLQCLEEELKPLEEVL[hSer]LAQSKNFHLRPRDLISNINVIVLELKGSETTF[hSer]CEYADETATIVEFLNRWITFSQSIISTLT
modifications: lactam N-32

Average EC50, pSTAT5 Assay in NK cells (IL-2 receptor βγ complex): 7.72 nM
B9: CMP-319 (ligand)
chain: RGRRVANLVGAPTSSSTKKTQLQLEHLLLDLQEILNGINNYKNPKLTR[Nle]L[hSer][Yn3]KF[Ygp][Nle]PKKATELKHLQCLEEELKPLEEVL[hSer]LAQSKNFHLRPRDLISNINVIVLELKGSETTF[hSer]CEYADETATIVEFLNRWITFSQSIISTLT
modifications: lactam N-33; ends not checked

Average EC50, HEK-Blue IL-2R (CD122+, CD132+) Reporter Assay, MMP2 cleaved molecule [1]: 0.021 nM
B10: CMP-304, MMP2 cleaved (ligand)
chain: PLGLAGAPTSSSTKKTQLQLEHLLLDLQEILNGINNYKNPKLTR[Nle]L[hSer][Yn3(4)]KF[Ygp(4)][Nle]PKKATELKHLQCLEEELKPLEEVL[hSer]LAQSKNFHLRPRDLISNINVIVLELKGSETTF[hSer]CEYADETATIVEFLNRWITFSQSIISTLT
modifications: ends and bridges not checked; also: MMP2 cleaved, ring opened, cut site and remnants not given here

Average EC50, HEK-Blue IL-2R (CD122+, CD132+) Reporter Assay, intact molecule [1]: 0.521 nM
B11: CMP-303 (ligand)
chain: PLGLAGAPTSSSTKKTQLQLEHLLLDLQEILNGINNYKNPKLTR[Nle]L[hSer][Yn3″]KF[Ygp″][Nle]PKKATELKHLQCLEEELKPLEEVL[hSer]LAQSKNFHLRPRDLISNINVIVLELKGSETTF[hSer]CEYADETATIVEFLNRWITFSQSIISTLT
modifications: bridge N-29; not fully specified (N-terminus, bridges); ends not checked

Average EC50, HEK-Blue IL-2R (CD122+, CD132+) Reporter Assay, intact molecule [1]: 0.591 nM
B12: CMP-301 (ligand)
chain: GPLGLAG[PEG9′]APTSSSTKKTQLQLEHLLLDLQEILNGINNYKNPKLTR[Nle]L[hSer][Yn3″]KF[Ygp″][Nle]PKKATELKHLQCLEEELKPLEEVL[hSer]LAQSKNFHLRPRDLISNINVIVLELKGSETTF[hSer]CEYADETATIVEFLNRWITFSQSIISTLT
modifications: lactam N-31; ends not checked

Average EC50, pSTAT5 Assay in NK cells (IL-2 receptor βγ complex): 2.94 nM
B13: CMP-321, MMP2 cleaved molecule (ligand)
chain: SGRVQPLVDAPTSSSTKKTQLQLEHLLLDLQEILNGINNYKNPKLTR[Nle]L[hSer][Yn3(8)]KF[Ygp(8)][Nle]PKKATELKHLQCLEEELKPLEEVL[hSer]LAQSKNFHLRPRDLISNINVIVLELKGSETTF[hSer]CEYADETATIVEFLNRWITFSQSIISTLT
modifications: lactam N-32; also: MMP2 cleaved, cleavage site and product not given here

Average EC50, pSTAT5 Assay in NK cells (IL-2 receptor βγ complex): 0.18 nM
B14: CMP-325 (ligand)
chain: RVANLVGAPTSSSTKKTQLQLEHLLLDLQE([Arg-Gly-Arg])ILNGINNYKNPKLTR[Nle]L[hSer][Yn3″]KF[Ygp″][Nle]PKKATELKHLQCLEEELKPLEEVL[hSer]LAQSKNFHLRPRDLISNINVIVLELKGSETTF[hSer]CEYADETATIVEFLNRWITFSQSIISTLT
modifications: not fully specified; ends and bridges not checked

Average EC50, pSTAT5 Assay in NK cells (IL-2 receptor βγ complex): 0.13 nM
B15: CMP-323 (ligand)
chain: LVGAPTSSSTKKTQLQLEHLLLDLQE([Arg-Gly-Arg])ILNGINNYKNPKLTR[Nle]L[hSer][Yn3″]KF[Ygp″][Nle]PKKATELKHLQCLEEELKPLEEVL[hSer]LAQSKNFHLRPRDLISNINVIVLELKGSETTF[hSer]CEYADETATIVEFLNRWITFSQSIISTLT
modifications: not fully specified; ends and bridges not checked

Average EC50, HEK-Blue IL-2R (CD122+, CD132+) Reporter Assay, intact molecule [1]: 0.497 nM
B16: CMP-305 (ligand)
chain: APTSSSTKKTQLQLEHLLLDLQKILNGINNYKNPKLTR[Nle]L[hSer][Yn3(4)]KF[Ygp(4)][Nle]PKKATELKHLQCLEEELKPLEEVL[hSer]LAQSKNFHLRPRDLISNINVIVLELKGSETTF[hSer]CEYADETATIVEFLNRWITFSQSIISTLT
modifications: bridge 15-23; not fully specified (bridges); ends not checked

Average EC50, HEK-Blue IL-2R (CD122+, CD132+) Reporter Assay, MMP2 cleaved molecule [1]: 0.00646 nM
B17: CMP-302, MMP2 cleaved (ligand)
chain: GPLGLAGAPTSSSTKKTQLQLEHLLLDLQEILNGINNYKNPKLTR[Nle]L[hSer][Yn3″]KF[Ygp″][Nle]PKKATELKHLQCLEEELKPLEEVL[hSer]LAQSKNFHLRPRDLISNINVIVLELKGSETTF[hSer]CEYADETATIVEFLNRWITFSQSIISTLT
modifications: ends and bridges not checked; also: MMP2 cleaved, ring opened, cut site and remnants not given here
